Assay results reported in paper PMC8345934, “Biochemical Studies of Mitochondrial Malate: Quinone Oxidoreductase from Toxoplasma gondii” (International Journal of Molecular Sciences, 2021).

T1: malate:quinone oxidoreductase (TgMQO) (Toxoplasma gondii, UniProt Q1KSF3)
T1 construct: gene mqo; lacking the mitochondrial targeting signal (Δ1-37 residues), His-tag purified
T1 sequence (Q1KSF3 38-549): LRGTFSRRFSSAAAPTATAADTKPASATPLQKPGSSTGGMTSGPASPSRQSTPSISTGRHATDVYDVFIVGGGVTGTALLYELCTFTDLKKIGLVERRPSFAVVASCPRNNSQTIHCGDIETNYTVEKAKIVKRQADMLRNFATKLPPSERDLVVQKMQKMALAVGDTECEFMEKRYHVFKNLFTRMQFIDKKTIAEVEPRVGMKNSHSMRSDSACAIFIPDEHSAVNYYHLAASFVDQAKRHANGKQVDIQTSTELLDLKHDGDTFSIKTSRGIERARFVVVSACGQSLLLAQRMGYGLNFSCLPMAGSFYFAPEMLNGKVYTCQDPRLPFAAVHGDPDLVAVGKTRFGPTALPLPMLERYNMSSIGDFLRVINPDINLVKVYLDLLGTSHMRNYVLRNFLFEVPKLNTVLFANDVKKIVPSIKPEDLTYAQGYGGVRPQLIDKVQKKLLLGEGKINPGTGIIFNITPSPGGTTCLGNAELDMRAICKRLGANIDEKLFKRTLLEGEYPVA

B1: malate:quinone oxidoreductase (TgMQO) (Toxoplasma gondii) (protein)
chain: LRGTFSRRFSSAAAPTATAADTKPASATPLQKPGSSTGGMTSGPASPSRQSTPSISTGRHATDVYDVFIVGGGVTGTALLYELCTFTDLKKIGLVERRPSFAVVASCPRNNSQTIHCGDIETNYTVEKAKIVKRQADMLRNFATKLPPSERDLVVQKMQKMALAVGDTECEFMEKRYHVFKNLFTRMQFIDKKTIAEVEPRVGMKNSHSMRSDSACAIFIPDEHSAVNYYHLAASFVDQAKRHANGKQVDIQTSTELLDLKHDGDTFSIKTSRGIERARFVVVSACGQSLLLAQRMGYGLNFSCLPMAGSFYFAPEMLNGKVYTCQDPRLPFAAVHGDPDLVAVGKTRFGPTALPLPMLERYNMSSIGDFLRVINPDINLVKVYLDLLGTSHMRNYVLRNFLFEVPKLNTVLFANDVKKIVPSIKPEDLTYAQGYGGVRPQLIDKVQKKLLLGEGKINPGTGIIFNITPSPGGTTCLGNAELDMRAICKRLGANIDEKLFKRTLLEGEYPVA

Tests used:
[1] = target: T1, malate:quinone oxidoreductase (TgMQO); experiment: spectrophotometric dUQ reduction at […] nm, purified recombinant enzyme; assay type: biochemical
purified protein [2] = substrate: COC1=C(OC)C(=O)C(C/C=C(\C)CC/C=C(\C)CC/C=C(\C)CCC=C(C)C)=C(C)C1=O; experiment: purified protein; conditions: FAD ubiquinone binding site
purified protein [3] = substrate: COC1=C(OC)C(=O)C(C/C=C(\C)CCC=C(C)C)=C(C)C1=O; experiment: purified protein; conditions: FAD ubiquinone binding site
purified protein [4] = substrate: COC1=C(OC)C(=O)C(C/C=C(\C)CC/C=C(\C)CC/C=C(\C)CC/C=C(\C)CC/C=C(\C)CCC=C(C)C)=C(C)C1=O; experiment: purified protein; conditions: FAD ubiquinone binding site
purified protein [5] = substrate: O=C(O)C[C@H](O)C(=O)O; experiment: purified protein; conditions: FAD malate binding site
purified protein [6] = substrate: CCCCCCCCCCC1=C(C)C(=O)C(OC)=C(OC)C1=O; experiment: purified protein; conditions: FAD ubiquinone binding site
purified protein [7] = substrate: COC1=C(OC)C(=O)C(CC=C(C)C)=C(C)C1=O; experiment: purified protein; conditions: FAD ubiquinone binding site
purified protein [8] = substrate: COC1=C(OC)C(=O)C(C)=CC1=O; experiment: purified protein; conditions: FAD ubiquinone binding site

| Molecule | IC50 [1] | Km (purified protein [2]) | Vmax (purified protein [2]) | Km (purified protein [3]) | Vmax (purified protein [3]) | Km (purified protein [4]) | Vmax (purified protein [4]) | Km (purified protein [5]) | Vmax (purified protein [5]) | Km (purified protein [6]) | Vmax (purified protein [6]) | Km (purified protein [7]) | Vmax (purified protein [7]) | Km (purified protein [8]) | Vmax (purified protein [8]) |
| --- | --- | --- | --- | --- | --- | --- | --- | --- | --- | --- | --- | --- | --- | --- | --- |
| CC(C)=CCC/C(C)=C/CC/C(C)=C/Cc1c(O)c2ccccc2oc1=O [Ferulenol] | 822 ± 151 nM |  |  |  |  |  |  |  |  |  |  |  |  |  |  |
| B1 |  | 7.7 ± 4.3 µM | 4.39 µmol/min/mg | 13.2 µM | 45.1 µmol/min/mg | 8.0 ± 3.3 µM | 3.64 µmol/min/mg | 370 ± 140 µM | 6.3 µmol/min/mg | 17 ± 4.7 µM | 12.1 µmol/min/mg | 116 ± 16 µM | 44.2 µmol/min/mg | 225 ± 77 µM | 12.7 µmol/min/mg |
